Experimental data: patent publication US20180066242A1

Molecular target: dCas9(C)-FKBP-2×NLS-VP64 (split-4, N863A) (Streptococcus pyogenes)
Assay: cell-based or functional assay

## dCas9(N)-FRB-2×NES (split-4, D10A) (from UniProt Q99ZW2 1-535; P42345 2021-2113; Q05397 518-525)
  ASCL1 mRNA by qPCR, +rapamycin/-rapamycin ratio: 77
  IL1RN mRNA by qPCR, +rapamycin/-rapamycin ratio: 649
  MYOD1 mRNA by qPCR, +rapamycin/-rapamycin ratio: 29
